Experimental data reported in article PMC11701102, “Structural insights into the interplay between microtubule polymerases, γ-tubulin complexes and their receptors” (Nature Communications, 2025).

Key:
[1] = molecular target: the molecule itself; assay: SEC-MALS + other: mass photometry; FLAG-Stu2 (10 µM) and His-Spc72^291-599 (60 µM) alone or mixed 1:1 (vol), Superdex 200 Increase 5/150, 50 mM Tris-HCl pH 7.5, 150 mM NaCl, room temperature; mass photometry below 40 nM
[2] = molecular target: T1, His-Spc72^1-599 (C. albicans), co-expressed in insect cells (C. albicans, UniProt Q5AGV5 1-599); assay: SEC; FLAG-purified γ-TuSC/His-Spc72^1-599/FLAG-Stu2 on Superose 6 Increase 10/300 in HB100 buffer (40 mM K-HEPES pH 7.4, 100 mM KCl); fractions by SDS-PAGE, Western blot and gel densitometry; ring-like oligomers also seen by negative stain EM; settings: both partners purified
T1 construct: Only the CM1 motif is resolved in the cryo-EM map, as a parallel dimeric coiled coil; source: Sf21 insect cells, MultiBac co-expression with γ-TuSC components and FLAG-Stu2 or His-GFP-Mzt1
T1 sequence (looked up): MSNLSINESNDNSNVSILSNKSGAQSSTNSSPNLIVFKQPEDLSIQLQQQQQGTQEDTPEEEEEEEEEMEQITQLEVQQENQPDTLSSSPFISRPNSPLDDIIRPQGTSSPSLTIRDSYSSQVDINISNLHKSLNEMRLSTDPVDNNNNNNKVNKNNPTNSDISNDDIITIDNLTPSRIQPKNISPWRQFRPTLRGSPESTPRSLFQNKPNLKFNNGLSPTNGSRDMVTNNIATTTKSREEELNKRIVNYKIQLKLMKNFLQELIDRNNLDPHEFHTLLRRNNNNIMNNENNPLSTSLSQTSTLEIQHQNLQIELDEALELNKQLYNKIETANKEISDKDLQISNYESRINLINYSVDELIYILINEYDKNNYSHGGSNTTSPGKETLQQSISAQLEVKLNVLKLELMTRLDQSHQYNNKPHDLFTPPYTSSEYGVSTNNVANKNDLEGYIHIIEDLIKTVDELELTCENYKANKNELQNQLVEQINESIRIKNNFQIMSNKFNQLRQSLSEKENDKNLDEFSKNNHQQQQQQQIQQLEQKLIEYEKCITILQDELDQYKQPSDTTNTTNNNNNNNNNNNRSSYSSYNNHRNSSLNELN

B1: FLAG-Stu2 (C. albicans, full length) (natural protein, UniProt A0A1D8PTZ8 1-924, looked up)
chain: MSTEEEDYSNLSLEERFVHKVWKVRLQAYEELATNIENSRNESDPIFTSLSLDNLKKMILDSNVVAQETGYNTFNKFLIFGGNAANVSKLKNLGIIGSICEKGLLSSRKNTKEWSVESILLMIEISNDPNSIVEDILPYLTNRLPKLVTGCVSCLASIIENFGCKIISPKPIVPCLSKLFAHADKNVRNETTKLTIELYRWMGDALINALFSDLKPVQQKDLTAAFEKEKGTSPQQKRYTKKQREEIERREQEAAAAAAAAAATTAGNGGGNGDDVDDVEMSDVNGVTDDNEYDPLEFVDPVEVLNKFPSDFDSRISSSKWKDRKEVLEEIIPILEKSPKLITTDDYLPVLRIWAKCMKDANIQVVQLAANCIEFVIKGLGNEFSKYQSVVLTPVVERLKEKKPSVATALDNVLDALFNLSGFGNGVLDEAINGMKLKTPQNKIASANFVKRCLSTTKIPPKTSEIDAIMEVGIKLLSESQEPIRQAATEMIGTLMKITGPRELKPFLEKVDENRKNKINDYYEETAQVKTTMANASKSSSVASGSRNVSTAGGSFSSSTMKPPSKSSQDRKTSSGASSIIPAKRTASSPAKRDEVKNGRGMTARSLAKPNIPSLRPPTNVTQDSSGDGSSFSQQQQQQQVPSTSTGGGSGGAQSMISSVTNEEVNLLKQQIIKLQEEVQNYKNQQESHLKTIKLLEESNNNYREEIESVKRELSNEKRNATITTNHKDTHINNLKSELEKANYRIKDLEQEREINRLQQSNLAFERSNISSSNSRNSFYKPSPNKFAPSDISTGVKRLSIGGEENNHFGGGGGASPNFHNNTIHSTNTTTSTTATASGAGIGTGVGTGTGTGTGTGMGISRPTNSFRSSVNYGSTSSLTSSSRRESMDIDNGADWKRAAEVTLQLKARIERMKARTRSPLNIE
notes: Stu2, C. albicans, full-length Met1 to Glu924; FLAG tag followed by an HRV 3C cleavage site at the 5' end; also called wild-type FLAG-Stu2; source: Sf21 insect cells; not shown: FLAG, N-terminal, kept
stoichiometry N [1]: 2
stoichiometry N [2]: < 2 Stu2 dimers per Spc72 dimer
